Here are results for 8 molecules from PMC11960969, “Mdga2 deficiency leads to an aberrant activation of BDNF/TrkB signaling that underlies autism-relevant synaptic and behavioral changes in mice” (PLOS Biology, 2025).

The experiment relates to hippocampal proteins. The experiment in a line: DIA quantification proteomics, hippocampus of Mdga2+/- vs WT mice. Details: species or system mouse. The note with it: S3 Table, downregulated DEPs; for log2FC: Mdga2+/- vs WT mouse hippocampus (HET-HIP-VS-WT-HIP), SE, pvalue and adj_pvalue in own columns c3-c5; for Class: regulation class of the protein, HET-HIP-VS-WT-HIP. The procedure, abridged:
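Hippocampi from 1.5–2-month-old male Mdga2+/− mice and WT littermates; 100 μg protein trypsin-digested, peptides high-pH fractionated. DDA-built spectral library, DIA by nano-LC–MS/MS with Spectronaut and mProphet QC. DEPs called at fold change >1.1 and p <0.05.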

B1: sp¦Q8K4I3¦ARHG6_MOUSE (protein, UniProt Q8K4I3 1-771, looked up)
Rho guanine nucleotide …: MNPEERLVTWLISLGVLESPKKTVCDPEEFLKSSLKNGVVLCKLINRLLPGSVEKYCLEPQTEADCIDNINDFLKGCATLQVEVFEPDDLYSGANFSKVLNTLLAVNKATEDQLSERPCGRSSSLSAATSSQTNPQVAVPSTAPEQHSEEKAEMTENGSHQLIVKARFNFKQTNEDELSVCKGDIIYVTRVEEGGWWEGTLNGRTGWFPSNYVREIKPSERPLSPKAIKGFDTAPLTKNYYTVVLQNILDTEKEYAKELQSLLVTYLRPLQSNNNLSTVEFTCLLGNFEEVCTFQQTLCQALEECSKFPENQHKVGGCLLNLMPHFKSMYLAYCANHPSAVNVLTQHSDDLERFMENQGASSPGILILTTSLSKPFMRLEKYVTLLQELERHMEDTHPDHQDILKAIIAFKTLMGQCQDLRKRKQLELQILSEPIQAWEGDDIKTLGNVIFMSQVVMQHGACEEKEERYFLLFSSVLIMLSASPRMSGFMYQGKIPIAGMVVNRLDEIEGSDCMFEITGSTVERIVVHCNNNQDFQEWMEQLNRLTKGPTSCGSLSKTSSSSCSTHSSFSSTGQPRGPLEPPQIIKPWSLSCLRPAPPLRPSAALGYKERMSYILKESSKSPKTMKKFLHKRKTERKASEEEYVIRKSTAALEEDAQILKVIEAYCTSASFQQGTRKDSVPQVLLPEEEKLIIEETRSNGQTIIEEKSLVDTVYALKDEVKELKQENKKMKQCLEEELKSRKDLEKLVRKLLKQTDECIRSESSSKTSILQ
Regarding B1, the log2FC is listed as -1.975 and the Class entry is given as “Down”.

B2: sp¦P06802¦ENPP1_MOUSE (protein, UniProt P06802 1-906, looked up)
Ectonucleotide …: MERDGDQAGHGPRHGSAGNGRELESPAAASLLAPMDLGEEPLEKAERARPAKDPNTYKVLSLVLSVCVLTTILGCIFGLKPSCAKEVKSCKGRCFERTFSNCRCDAACVSLGNCCLDFQETCVEPTHIWTCNKFRCGEKRLSRFVCSCADDCKTHNDCCINYSSVCQDKKSWVEETCESIDTPECPAEFESPPTLLFSLDGFRAEYLHTWGGLLPVISKLKNCGTYTKNMRPMYPTKTFPNHYSIVTGLYPESHGIIDNKMYDPKMNASFSLKSKEKFNPLWYKGQPIWVTANHQEVKSGTYFWPGSDVEIDGILPDIYKVYNGSVPFEERILAVLEWLQLPSHERPHFYTLYLEEPDSSGHSHGPVSSEVIKALQKVDRLVGMLMDGLKDLGLDKCLNLILISDHGMEQGSCKKYVYLNKYLGDVNNVKVVYGPAARLRPTDVPETYYSFNYEALAKNLSCREPNQHFRPYLKPFLPKRLHFAKSDRIEPLTFYLDPQWQLALNPSERKYCGSGFHGSDNLFSNMQALFIGYGPAFKHGAEVDSFENIEVYNLMCDLLGLIPAPNNGSHGSLNHLLKKPIYNPSHPKEEGFLSQCPIKSTSNDLGCTCDPWIVPIKDFEKQLNLTTEDVDDIYHMTVPYGRPRILLKQHHVCLLQQQQFLTGYSLDLLMPLWASYTFLRNDQFSRDDFSNCLYQDLRIPLSPVHKCSYYKSNSKLSYGFLTPPRLNRVSNHIYSEALLTSNIVPMYQSFQVIWHYLHDTLLQRYAHERNGINVVSGPVFDFDYDGRYDSLEILKQNSRVIRSQEILIPTHFFIVLTSCKQLSETPLECSALESSAYILPHRPDNIESCTHGKRESSWVEELLTLHRARVTDVELITGLSFYQDRQESVSELLRLKTHLPIFSQED
Regarding B2, the log2FC is listed as -2.366 and the Class result is on record as “Down”.

B3: sp¦Q3TBL6¦TP8L3_MOUSE (protein, UniProt Q3TBL6 1-204, looked up)
Tumor necrosis factor …: MDSDSGEQSEGEPGTAAGPHVFSSKNLALQAQKKILSKIASKTVANMLIDDTSSEIFDELYKVTEIHTHNKKEAHKIMKDAIKVAIKIGILYRNKQFSQEEVIIVEKLRKKLNQTAMTMVSFYEVEYTFDTNVLSKLLHECKDLVHELVQRHLTPRTHGRINHVFNHFADVEFLSTLYGPHGNCRPNLKRICEGINKLLDDKIL
In the case of B3, the log2FC was -2.713 and the Class entry is listed as “Down”.

B4: sp¦Q922B6¦TRAF7_MOUSE (protein, UniProt Q922B6 1-594, looked up)
E3 ubiquitin-protein ligase …: MPPINTPRRSDSAISVRSLHSESSMSLRSTFSLPEEEEEPEPLVFAEQPSVKLCCQLCCSVFKDPVITTCGHTFCRRCALKSEKCPVDNAKLTVVVNNIAVAEQIGELFIHCRHGCHAAGTGKPGVFEVDPRGCPFTIKLSARKDHESSCDYRPVRCPNNPSCPPLLKMNLEAHLKECEHIKCPHSKYGCTFIGNQDTYETHLETCRFEGLKEFLQQTDDRFHEMHVALAQKDQEIAFLRSMLGKLSEKIDQLEKSLELKFDVLDENQSKLSEDLMEFRRDASMLNDELSHINARLNMGILGSYDPQQIFKCKGTFVGHQGPVWCLCVYSMGDLLFSGSSDKTIKVWDTCTTYKCQKTLEGHDGIVLALCIQGCKLYSGSADCTIIVWDIQNLQKVNTIRAHDNPVCTLVSSHNMLFSGSLKAIKVWDIVGTELKLKKELTGLNHWVRALVAAQSYLYSGSYQTIKIWDIRTLDCIHVLQTSGGSVYSIAVTNHHIVCGTYENLIHVWDIESKEQVRTLTGHVGTVYALAVISTPDQTKVFSASYDRSLRVWSMDNMICTQTLLRHQGSVTALAVSRGRLFSGAVDSTVKVWTC
Take B4: the log2FC was -2.686 and the Class result was “Down”.

B5: sp¦O54983¦CRYM_MOUSE (protein, UniProt O54983 1-313, looked up)
Ketimine reductase …: MKRAPAFLSAEEVQDHLRSSSLLIPPLEAALANFSKGPDGGVMQPVRTVVPVAKHRGFLGVMPAYSAAEDALTTKLVTFYEGHSNTAVPSHQASVLLFDPSNGSLLAVMDGNVITAKRTAAVSAIATKLLKPPGSDVLCILGAGVQAYSHYEIFTEQFSFKEVRMWNRTRENAEKFASTVQGDVRVCSSVQEAVTGADVIITVTMATEPILFGEWVKPGAHINAVGASRPDWRELDDELMRQAVLYVDSREAALKESGDVLLSGADIFAELGEVISGAKPAHCEKTTVFKSLGMAVEDLVAAKLVYDSWSSGK
As to B5, the log2FC was -1.898 and the Class result is reported as “Down”.

B6: sp¦Q9EPQ7¦STAR5_MOUSE (protein, UniProt Q9EPQ7 1-213, looked up)
StAR-related lipid transfer …: MDPSWATQESEAVAEKVLRYRRDASGWKKCREGNGVSISWRPSEEFPGNLYRGEGILCGTPEEVWDCIKPVASGLREKWDDNVSSFEIVQSITDMLCVSRTSTPSAAMKLISPRDFVDLVLVKKYEDGTISSNATHVEHPLCPPKPGFVRGFNHPCGCFCEPLPGDPNKTNLVTFFQTDLSGYLPQSVVDSFFPRSMAEFYPNLQKAVRKFHH
As to B6, the log2FC is listed as -1.896 and the Class result is “Down”.

B7: sp¦Q5PR69¦CRAD_MOUSE (protein, UniProt Q5PR69 1-1291, looked up)
Capping protein-inhibiting …: MGARAFSHDSIFIPDGGAESEQTVQAMSQDNILGKVKTLQRQLGKNIKFGQRPSNAIPMKKAGSTDASSEEDFVLTSPMEIVTQQDIVPSDTENKSSDTPSSSSPLNLPEAGSDMEEKVAPVKPSRPKRHLSSAGTIESVNLDAIPLAIARLDNSAARHKLAVKPKNQRVSRKHRWLAQDRQNEPGSFESQSSLDQNGQLGEDKHIWHGEEPEPLESHEEKRLHEEYWRELEAKCKRQKAEAAEKRRQEEQRRQALERRLWEESLRQELLEEEEEGEEEEEVKEEGEEGEEVGLQPRAGKVPPEEGHQSGPEEQRCTEQELGGADDPARLEAEERRREQEEAERQAEKLRQREAERQEEEQKQREAERQEEEARQCEAERQAEKLRQREAERQEEEARQREAERQAEKLRQREAERQEEELRQREEAERQEKLRQRDAESQEEELRQREAERQRAQEEDAKGMLQEEEEEAKRIEELKGKETPEPLVEEGPQSPEGESQPWLTDDADQRSPLQRDLEKPGEREREDLESAGQREIAEEPRGEGEPAEQSGDLDAHCGGVDGEGKETAQTDSPQPQERQMEGTPAPEENEATAADIDRKVEELRWQEVDERQTMPRPYTFQVSSGSRQILFPKVNLSPVTPAKDASLAPAAQEPPAPRGAASHALPSALSIPHTAILVTGAQLCGPAVNLSQIKDTACKSLLGLSEEKRPMDVPTVESRAGSGKSRPAPESPSNAAALAEWASIRSRILKNSEGDQRGDREPARAGDEPVPRARCDSRGNVRRTPPVNAKFSIMPAWQKFSDSGAETFRQSLDGESGRKKPGLAPSEETAPQPHAAAQQEVSQEPPDTTDGCKFAKDLPSFLVPGLPSPQKAASRTESTTTLDSETTSDVGNPDPAMPGGEEKASPFGIKLRRTNYSLRFHCDQQAEQKKKKRHSSTGDSVGGATPATGSVSGESEPEATFLKHGPSLPQERKPALSPRKDSAESHSSGHYVAVAQSGLPPASGQTPAPEQDRAVSKMPSMQKPALAPKPASQTPPSSPLSKLSRPHLVELLARRAGKLDSEPSETAKESSDNQPPSPSLPEELKGQKRDEKDVPEKKPASPPLPAGQQERPSLIPETGRKEKPVLQSRHSLDGSKVTEKVETAQPLWITLALQKQKGFREQQATREERKQAREAKQAEKLSKETVSVSLQPGSSRASKTAPVHKPAAPSEEKKPETAVSRLQRREQLKKSNTLPTSVTVEISDSAPSAALVKDVTKRFSTPDAAPVSTEPAWLALAKRKAKAWSDCPQIIK
Turning to B7, the log2FC is listed as -1.882 and the Class entry is “Down”.

B8: sp¦Q9ERI2¦RB27A_MOUSE (protein, UniProt Q9ERI2 2-221, looked up)
Ras-related protein Rab-27A: SDGDYDYLIKFLALGDSGVGKTSVLYQYTDGKFNSKFITTVGIDFREKRVVYRANGPDGAVGRGQRIHLQLWDTAGQERFRSLTTAFFRDAMGFLLLFDLTNEQSFLNVRNWISQLQMHAYCENPDIVLCGNKSDLEDQRAVKEEEARELAEKYGIPYFETSAANGTNISHAIEMLLDLIMKRMERCVDKSWIPEGVVRSNGHTSADQLSEEKEKGLCGC
As for B8, the log2FC was -2.259 and the Class entry was “Down”.
